T1: human thrombin receptor (human, UniProt P25116 42-425)
T1 chain: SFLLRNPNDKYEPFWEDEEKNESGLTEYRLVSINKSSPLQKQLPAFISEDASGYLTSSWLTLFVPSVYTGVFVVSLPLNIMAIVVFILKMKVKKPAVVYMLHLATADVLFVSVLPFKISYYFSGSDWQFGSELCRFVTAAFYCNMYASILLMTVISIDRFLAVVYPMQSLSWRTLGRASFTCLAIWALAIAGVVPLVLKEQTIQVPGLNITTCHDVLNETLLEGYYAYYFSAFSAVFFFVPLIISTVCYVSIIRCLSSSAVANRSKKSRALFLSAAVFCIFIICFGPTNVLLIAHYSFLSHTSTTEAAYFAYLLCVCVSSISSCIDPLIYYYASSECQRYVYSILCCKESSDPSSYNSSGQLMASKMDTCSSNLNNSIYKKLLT

B1: (S-MeCys)FLLRN-NH2 (peptide)
peptide: [SMeCys]FLLRN-NH2
modifications: N-terminus assumed
SMILES: CSC[C@H](N)C(=O)N[C@@H](Cc1ccccc1)C(=O)N[C@@H](CC(C)C)C(=O)N[C@@H](CC(C)C)C(=O)N[C@@H](CCCNC(=N)N)C(=O)N[C@@H](CC(N)=O)C(N)=O
B2: SF(Tic)LRN-NH2 (peptide)
peptide: SF[Tic]LRN-NH2
modifications: N-terminus assumed
SMILES: CC(C)C[C@H](NC(=O)[C@@H]1Cc2ccccc2CN1C(=O)[C@H](Cc1ccccc1)NC(=O)[C@@H](N)CO)C(=O)N[C@@H](CCCNC(=N)N)C(=O)N[C@@H](CC(N)=O)C(N)=O
B3: SF(Phg)LR-NH2 (peptide)
peptide: SF[Phg]LR-NH2
modifications: N-terminus assumed
SMILES: CC(C)C[C@H](NC(=O)[C@@H](NC(=O)[C@H](Cc1ccccc1)NC(=O)[C@@H](N)CO)c1ccccc1)C(=O)N[C@@H](CCCNC(=N)N)C(N)=O
B4: SF(Cha)LRN-NH2 (peptide)
peptide: SF[Cha]LRN-NH2
modifications: N-terminus assumed
SMILES: CC(C)C[C@H](NC(=O)[C@H](CC1CCCCC1)NC(=O)[C@H](Cc1ccccc1)NC(=O)[C@@H](N)CO)C(=O)N[C@@H](CCCNC(=N)N)C(=O)N[C@@H](CC(N)=O)C(N)=O
B5: SFL(Cha)R-NH2 (peptide)
peptide: SFL[Cha]R-NH2
modifications: N-terminus assumed
SMILES: CC(C)C[C@H](NC(=O)[C@H](Cc1ccccc1)NC(=O)[C@@H](N)CO)C(=O)N[C@@H](CC1CCCCC1)C(=O)N[C@@H](CCCNC(=N)N)C(N)=O
B6: SF(Cha)LR-NH2 (peptide)
peptide: SF[Cha]LR-NH2
modifications: N-terminus assumed
SMILES: CC(C)C[C@H](NC(=O)[C@H](CC1CCCCC1)NC(=O)[C@H](Cc1ccccc1)NC(=O)[C@@H](N)CO)C(=O)N[C@@H](CCCNC(=N)N)C(N)=O

The source of these data is patent US7119182 (University of California, dated 2006).

Numbered stars: 1 amine (or outer) side, 2 acyl side, 3 side chain; on linkers, the order of the positions; unused ones are H or OH. Square brackets hold non-standard residues; d marks the D form. Ends that are not written are not given here. SMeCys = S-methylcysteine, CSC[C@H](N[*:1])C(=O)[*:2]; Tic = O=C(O)[C@@H]1Cc2ccccc2CN1; Cha = N[C@@H](CC1CCCCC1)C(=O)O; Phg = N[C@H](C(=O)O)c1ccccc1

The target in the experiment is T1, human thrombin receptor. Kind of experiment: cell-based or functional assay.
As for SFLLRN-NH2 [SFLLRN-NH2], the “EC50 (concentration required to elicit a 50% maximal aggregation), platelet aggregation” value worked out at 1.6 µM. With TFLLRNPNDK, the “EC50 (concentration required to elicit a 50% maximal aggregation), platelet aggregation” value came to 8.5 µM. SFALRNPNDKYE: the “EC50 (concentration required to elicit a 50% maximal aggregation), platelet aggregation” value was 20.7 µM. For the molecule SFWLR-NH2 [SFWLR-NH2], the “EC50 (concentration required to elicit a 50% maximal aggregation), platelet aggregation” value amounted to 24 µM. Turning to SFHLRN-NH2 [SFHLRN-NH2], the “EC50 (concentration required to elicit a 50% maximal aggregation), platelet aggregation” value came to 40.5 µM. SFLLRNPNDKYE: the “EC50 (concentration required to elicit a 50% maximal aggregation), platelet aggregation” value turned out to be 6.6 µM.

For the molecule SFGLR-NH2 [SFGLR-NH2], the “EC50 (concentration required to elicit a 50% maximal aggregation), platelet aggregation” value was 95 µM. Turning to desaminoAsn-FLLR-NH2 [[desaminoAsn]-FLLR-NH2], the “EC50 (concentration required to elicit a 50% maximal aggregation), platelet aggregation” value came out at 237 µM. With SFL[Nal]RN-NH2 (not fully specified; printed as SFL(Nal)RN-NH2) [SFL(Nal)RN-NH2], the “EC50 (concentration required to elicit a 50% maximal aggregation), platelet aggregation” value was 7.5 µM. Take SFFLRN-NH2 [SFFLRN-NH2]: the “EC50 (concentration required to elicit a 50% maximal aggregation), platelet aggregation” value worked out at 1.5 µM. As for SFRLR-NH2 [SFRLR-NH2], the “EC50 (concentration required to elicit a 50% maximal aggregation), platelet aggregation” value is 7.4 µM. Turning to B1, the “EC50 (concentration required to elicit a 50% maximal aggregation), platelet aggregation” value stood at 129 µM.

Turning to SXLLR (Cha at position 2; C-terminal amide (NH2)) [S(Cha)LLR-NH2], the “EC50 (concentration required to elicit a 50% maximal aggregation), platelet aggregation” value is 140 µM. On to {3‑Tetrahydrofuranoyl}-FLLR-NH2 [[3-Tetrahydrofuranoyl]-FLLR-NH2], for which the “EC50 (concentration required to elicit a 50% maximal aggregation), platelet aggregation” value turned out to be 1000 µM. For the molecule B2, the “EC50 (concentration required to elicit a 50% maximal aggregation), platelet aggregation” value is 11.3 µM. To SFFLR-NH2 [SFFLR-NH2] belongs 3.4 µM; to SXLLR (Thi at position 2; C-terminal amide (NH2)) [S(Thi)LLR-NH2], 7.6 µM; to B3, 6.7 µM. For the molecule SFILR-NH2 [SFILR-NH2], the “EC50 (concentration required to elicit a 50% maximal aggregation), platelet aggregation” value was 5.9 µM. In the case of SFLL-NH2 [SFLL-NH2] it was 146 µM; in that of B4, 1.3 µM. With {2‑MeButyryl}-FLLR-NH2 [(2-MeButyryl]-FLLR-NH2], the “EC50 (concentration required to elicit a 50% maximal aggregation), platelet aggregation” value came to 1500 µM.

Consider SFLLR-NH2 [SFLLR-NH2], for which the “EC50 (concentration required to elicit a 50% maximal aggregation), platelet aggregation” value amounted to 7.5 µM. For B5, the “EC50 (concentration required to elicit a 50% maximal aggregation), platelet aggregation” value was found to be 6 µM. Turning to SXLLR (OMeTyr at position 2; C-terminal amide (NH2)) [S(OMeTyr)LLR-NH2], the “EC50 (concentration required to elicit a 50% maximal aggregation), platelet aggregation” value stood at 46 µM.

As for Ac-FLLRNPNDKYEPF [Ac-FLLRNPNDKYEPF], the “EC50 (concentration required to elicit a 50% maximal aggregation), platelet aggregation” value was 796 µM. Take B6: the “EC50 (concentration required to elicit a 50% maximal aggregation), platelet aggregation” value is 1.5 µM. Turning to SFPLR-NH2 [SFPLR-NH2], the “EC50 (concentration required to elicit a 50% maximal aggregation), platelet aggregation” value stood at 22 µM. Turning to XFLLR (desaminoSer at the N-terminus; C-terminal amide (NH2)) [[desaminoSer]-FLLR-NH2], the “EC50 (concentration required to elicit a 50% maximal aggregation), platelet aggregation” value stood at 920 µM. As for CFLLR-NH2 [CFLLR-NH2], the “EC50 (concentration required to elicit a 50% maximal aggregation), platelet aggregation” value stood at 193 µM. With SFLFR-NH2 [SFLFR-NH2], the “EC50 (concentration required to elicit a 50% maximal aggregation), platelet aggregation” value was determined as 17 µM. Take SFLRR-NH2 [SFLRR-NH2]: the “EC50 (concentration required to elicit a 50% maximal aggregation), platelet aggregation” value was determined as 1000 µM.

Regarding SXLLR (Nal at position 2; C-terminal amide (NH2)) [S(Nal)LLR-NH2], the “EC50 (concentration required to elicit a 50% maximal aggregation), platelet aggregation” value stood at 42 µM.

Regarding GFLLR-NH2 [GFLLRNH2], the “EC50 (concentration required to elicit a 50% maximal aggregation), platelet aggregation” value is 7.3 µM. Take XFLLR (b-Ala at position 1; C-terminal amide (NH2)) [[b-Ala]-FLLR-NH2]: the “EC50 (concentration required to elicit a 50% maximal aggregation), platelet aggregation” value was 99 µM. In the case of SFLIRN-NH2 [SFLIRN-NH2] it was 20.5 µM; in that of SFLAR-NH2 [SFLAR-NH2], 146 µM.

SFLQRN-NH2 [SFLQRN-NH2]: the “EC50 (concentration required to elicit a 50% maximal aggregation), platelet aggregation” value is 61 µM. In the case of AFLLRNPNDKYE it was 12.9 µM; in that of SFLLRNPN, 7.6 µM.

As for SFYLRN-NH2 [SFYLRN-NH2], the “EC50 (concentration required to elicit a 50% maximal aggregation), platelet aggregation” value amounted to 4.9 µM. With SFLLRNPNDK, the “EC50 (concentration required to elicit a 50% maximal aggregation), platelet aggregation” value was 6.3 µM.

Consider SYLLR-NH2 [SYLLR-NH2], for which the “EC50 (concentration required to elicit a 50% maximal aggregation), platelet aggregation” value amounted to 288 µM. In the case of SFXLR (N-MeLeu at position 3; C-terminal amide (NH2)) [SF(N-MeLeu)LR-NH2] it was more than 1000 µM. For the molecule SFLLRNP-NH2 [SFLLRNP-NH2], the “EC50 (concentration required to elicit a 50% maximal aggregation), platelet aggregation” value was 4.5 µM.
